The values below come from patent US20090036382A1, “TGF-Beta Modulators and Use Thereof” (Universita' Degli Studi Di Padova, priority 2006, published 2009).

One experiment has as its target T1, Furin/SPC 1 (Homo sapiens, UniProt P09958).
T1 construct: expressed in transfected cells; host or cells: HEK293T
The experiment can be described thus: Western blot (anti-LAP) of pro TGF-β1 cleavage in HEK293T cells co-transfected with Furin/SPC 1. The experiment is classed as cell-based. The settings on record: HEK293T cell extracts, FIG. 5B. An excerpt:
To further investigate the role of emilin-1 on TGF-β processing, HEK293T cells were transfected with plasmids encoding pro TGF-β1, Furin/SPC 1 and EMI-domain, as shown in the scheme above FIG. 5B. Cell extracts were loaded on SDS-PAGE and detected by Western-blot with anti-LAP antibody.
(In general: In western blotting, separated proteins are transferred to a membrane and probed.)

Another experiment has as its target T2, pro TGF-β (Homo sapiens, UniProt P01137).
T2 construct: expressed in transfected cells; host or cells: HEK293T
The experiment can be described thus: Co-immunoprecipitation / Western blot of EMI domain or emilin1 with pro TGF-β in HEK293T cells. The conditions noted are these: HEK293T cell extracts or culture medium; anti-Flag / anti-LAP IP; FIG. 4A-4C. The experiment is classed as binding. An excerpt:
• The construct for emilin 1 expression was engineered in pCS2 vector (Rupp R. A. et al., 1994, Genes Dev 8, 1311-1323) (for a physical map of the vector, see the site faculty.washington.edu/rtmoon/pcs2+.html) as described (Zanetti M. et al., 2004, Mol Cell Biol 24, 638-650); the vector used for proTGF-β expression in MEF and HEK293T cells is pCDNA3.1 (Invitrogen). Vectors containing the coding sequence for human pro TGF-β are described in Young and Murphy-Ullrich, 2004 (Young and Murphy-Ullrich, 2004, J Biol Chem 279, 38032-38039). […]

Experiment [1] concerns the target T3, TGFBRII (type II TGF-β receptor) (Homo sapiens, UniProt P37173).
T3 construct: expressed in transfected cells; host or cells: HEK293T
The experiment can be described thus: 125I TGF-β1 / TGFBRII cross-linking (DSS) and anti-HA immunoprecipitation in transfected HEK293T cells. Format: binding. The conditions noted are these: HEK293T transfected with TGFBRII-HA and Flag-EMI-domain-GPI; iodinated TGF-β1; FIG. 2A. As for the experimental part:
Experiments were performed according to standard methods (Massague, 1987). Briefly, a solution of iodinated TGF-β1 (Amersham) was applied to HEK293T cells grown in 24 well plates and transfected with a plasmid carrying the sequence of TGFBRII (type II TGF-β receptor) fused to the HA epitope. After appropriate incubation and washing, the cell layer was exposed to a solution of DSS (disuccinimidyl suberate), a compound that favors formation of covalent cross-links between interacting molecules. The cell layer was extracted with immunoprecipitation buffer (RIPA-buffer) and subjected to the immunoprecipitation procedure with anti-HA antibody. The immunoprecipitate was solubilized with FSB (final sample buffer), separated by SDS-PAGE and radioactive complexes were detected by autoradiography. Molar excess of unlabeled TGF-β was used in parallel experiments. In other experiments, cells were simultaneously transfected with TGFBRII and with expression vectors driving expression of the emilin-1 EMI domain bound to GPI (glycosylphosphatidylinositol), a moiety which anchors the EMI domain to the cell membrane, that was tagged with the Flag epitope (Flag-EMI-domain-GPI).
Transfected cells, usually HEK293T, were incubated in Optimem (Invitrogen) for 24 hours prior to collection. […]

“Also recorded” adds a separate entry of the source.

T2 sequence (P01137 30-390): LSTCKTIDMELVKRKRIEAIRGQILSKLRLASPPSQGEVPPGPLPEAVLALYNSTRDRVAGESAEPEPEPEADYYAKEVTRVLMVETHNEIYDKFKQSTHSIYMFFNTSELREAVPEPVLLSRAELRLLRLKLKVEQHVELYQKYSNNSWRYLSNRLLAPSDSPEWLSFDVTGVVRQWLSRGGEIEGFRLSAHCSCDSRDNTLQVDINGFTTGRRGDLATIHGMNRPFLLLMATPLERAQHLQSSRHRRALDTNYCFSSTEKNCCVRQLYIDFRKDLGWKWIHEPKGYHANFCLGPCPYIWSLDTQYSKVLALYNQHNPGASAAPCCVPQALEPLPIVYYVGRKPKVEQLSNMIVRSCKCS
T3 sequence (P37173 23-567): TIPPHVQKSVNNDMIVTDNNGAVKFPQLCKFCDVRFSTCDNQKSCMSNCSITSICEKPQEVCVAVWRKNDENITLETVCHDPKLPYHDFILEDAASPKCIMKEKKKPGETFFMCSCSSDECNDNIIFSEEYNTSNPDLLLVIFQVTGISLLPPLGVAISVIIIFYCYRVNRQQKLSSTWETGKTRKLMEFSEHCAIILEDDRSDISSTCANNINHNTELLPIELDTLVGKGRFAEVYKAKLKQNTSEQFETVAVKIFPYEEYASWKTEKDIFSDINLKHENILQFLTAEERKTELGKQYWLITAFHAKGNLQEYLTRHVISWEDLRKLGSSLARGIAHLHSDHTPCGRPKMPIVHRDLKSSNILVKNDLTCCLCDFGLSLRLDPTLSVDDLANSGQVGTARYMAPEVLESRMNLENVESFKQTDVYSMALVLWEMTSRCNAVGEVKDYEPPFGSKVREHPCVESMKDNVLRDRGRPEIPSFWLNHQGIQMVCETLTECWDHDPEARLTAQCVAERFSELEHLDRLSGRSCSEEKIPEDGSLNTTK
T1 sequence (P09958 108-794): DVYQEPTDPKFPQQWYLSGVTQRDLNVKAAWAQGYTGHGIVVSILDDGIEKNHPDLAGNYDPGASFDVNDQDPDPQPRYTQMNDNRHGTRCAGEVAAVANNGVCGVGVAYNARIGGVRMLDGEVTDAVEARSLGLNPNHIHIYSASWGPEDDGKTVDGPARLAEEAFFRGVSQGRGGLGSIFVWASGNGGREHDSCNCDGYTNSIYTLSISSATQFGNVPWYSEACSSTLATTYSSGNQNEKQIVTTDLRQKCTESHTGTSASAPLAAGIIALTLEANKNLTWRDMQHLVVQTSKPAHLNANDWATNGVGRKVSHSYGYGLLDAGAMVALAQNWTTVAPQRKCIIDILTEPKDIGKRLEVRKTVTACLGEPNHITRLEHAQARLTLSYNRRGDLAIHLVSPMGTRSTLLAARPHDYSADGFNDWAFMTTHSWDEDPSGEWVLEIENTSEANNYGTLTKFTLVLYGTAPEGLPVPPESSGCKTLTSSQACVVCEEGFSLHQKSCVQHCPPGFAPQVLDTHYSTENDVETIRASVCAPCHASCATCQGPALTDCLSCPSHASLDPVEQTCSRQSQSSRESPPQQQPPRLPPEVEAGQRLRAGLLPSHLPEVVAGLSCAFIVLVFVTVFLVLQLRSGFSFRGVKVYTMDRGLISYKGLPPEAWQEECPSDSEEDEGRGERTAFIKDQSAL

B1: EMI domain: cysteine-rich domain of emilin-1, residues 55-131, SEQ ID NO 2; in some experiments Flag-tagged and GPI-anchored (protein)
chain: RHRNWCAYVVTRTVSCVLEDGVETYVKYQPCAWGQPQCPQSIMYRRFLRPRYRVAYKTVTDMEWRCCQGYGGDDCAE
modifications: sometimes Flag tag and GPI anchor; homo sapiens
notes: in some experiments Flag-tagged and GPI-anchored
For B1, the “Furin-induced proteolytic cleavage product of pro TGF-β1” value in the experiment with Furin/SPC 1 is reported as “blocks the effect of Furin”. The “Interaction with pro TGF-β (co-immunoprecipitation)” value in the experiment with pro TGF-β is recorded as “interacts specifically; also recorded: interacts only with the intact pro TGF-β molecule”. In experiment [1], the “Competition with TGF-β for binding to TGFBRII (TGFBRII/TGF-β complex band)” value is given as “does non compete with TGF-β for binding to TGFBRII”.
